Experimental data reported in publication PMC4603797, “The Structural Differences between a Glycoprotein Specific F-Box Protein Fbs1 and Its Homologous Protein FBG3” (PLoS ONE, 2015).
Residue numbers refer to the chain shown, from its start. One block for each molecule: values may come before it.

Key:
[1] = target: ribonuclease B (UniProt P61823); assay: pull-down; settings: read off a plot; for percent of parent: parent: est. 100; for other: Relative RNase B binding (% of Skp1–Fbs1 wild type control): parent: n.d.
[2] = target: ribonuclease B (UniProt P61823); assay: pull-down; settings: parent: est. 100; read off a plot
[3] = target: T1, SBD of Fbs1 (117–297), wild type (murine, UniProt Q80UW2 117-297); assay: pull-down; His-tagged Fbs1 SBDs (15 μg) immobilised on Ni-NTA agarose, incubated with 10.7 μg RNase B at 4°C for 1 h; 20 mM Tris-HCl pH 7.5, 20 mM imidazole, 500 mM NaCl; SDS-PAGE, CBB staining, densitometry; settings: both partners purified
T1 construct: In pET15b; also called Fbs1 SBD; Fbs1 wild type; source: E. coli Rosetta (DE3), purified (Ni-NTA, gel filtration)
T1 sequence (looked up): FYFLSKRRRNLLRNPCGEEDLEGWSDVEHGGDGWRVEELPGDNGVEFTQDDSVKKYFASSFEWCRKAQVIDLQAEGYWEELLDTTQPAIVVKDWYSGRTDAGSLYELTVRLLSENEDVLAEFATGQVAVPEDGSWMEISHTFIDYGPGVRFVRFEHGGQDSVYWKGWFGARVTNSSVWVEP

[4] = target: T2, Fbs1 SBD L220K (murine, UniProt Q80UW2 117-297, L220K); assay: as above; settings: both partners purified
T2 construct: Fbs1/FBXO2, murine, SBD residues 117-297; Made with the KOD-Plus Mutagenesis kit; source: E. coli (pET15b), purified (Ni-NTA, gel filtration)
T2 sequence (looked up): T1 sequence (looked up) with L104K

[5] = target: T3, Fbs1 SBD T215P (murine, UniProt Q80UW2 117-297, T215P); assay: as above; settings: both partners purified
T3 construct: Fbs1/FBXO2, murine, SBD residues 117-297; Made with the KOD-Plus Mutagenesis kit; source: E. coli (pET15b), purified (Ni-NTA, gel filtration)
T3 sequence (looked up): T1 sequence (looked up) with T99P

[6] = target: T4, Fbs1 SBD A217C (murine, UniProt Q80UW2 117-297, A217C); assay: as above; settings: both partners purified
T4 construct: Fbs1/FBXO2, murine, SBD residues 117-297; Made with the KOD-Plus Mutagenesis kit; source: E. coli (pET15b), purified (Ni-NTA, gel filtration)
T4 sequence (looked up): T1 sequence (looked up) with A101C

Molecule: SBD of Fbs1 (117–297), wild type (from UniProt Q80UW2) loop β2-3 of Fbs1 replaced by that of FBG3
percent of parent [1]: 62%

Molecule: SBD of Fbs1 (117–297), wild type (from UniProt Q80UW2) loop β5-6 of Fbs1 replaced by that of FBG3
percent of parent [1]: 28% | percent of parent [2]: 25%

Molecule: SBD of Fbs1 (117–297), wild type (from UniProt Q80UW2) loop β7-8 of Fbs1 replaced by that of FBG3
percent of parent [1]: 96%

Molecule: SBD of Fbs1 (117–297), wild type (from UniProt Q80UW2) loops β2-3/β5-6 of Fbs1 replaced by those of FBG3
percent of parent [1]: 12%

Molecule: Skp1–FBG3 complex, wild type (His-tagged Skp1) (from UniProt P63208;Q9H4M3) loops β2-3/β5-6/β7-8/β9-10 of FBG3 replaced by those of Fbs1
other: Relative RNase B binding (% of Skp1–Fbs1 wild type control) [1]: 78%

Further lines, results first:

percent of parent [1]: 110%
Molecule: SBD of Fbs1 (117–297), wild type (from UniProt Q80UW2) loop β9-10 of Fbs1 replaced by that of FBG3

percent of parent [1]: 2.5%
Molecule: SBD of Fbs1 (117–297), wild type (from UniProt Q80UW2) loops β2-3/β5-6/β7-8/β9-10 of Fbs1 replaced by those of FBG3

other: Relative RNase B binding (% of Skp1–Fbs1 wild type control) [1]: 84%
Molecule: Skp1–FBG3 complex, wild type (His-tagged Skp1) (from UniProt P63208;Q9H4M3) loops β2-3/β5-6/β7-8 of FBG3 replaced by those of Fbs1

binding result [3]: binds | binding result [4]: binds | binding result [5]: binds | binding result [6]: binds
B1: ribonuclease B (enzyme, bovine, UniProt P61823 27-150, looked up)
chain: KETAAAKFERQHMDSSTSAASSSNYCNQMMKSRNLTKDRCKPVNTFVHESLADVQAVCSQKNVACKNGQTNCYQSYSTMSITDCRETGSSKYPNCAYKTTQANKHIIVACEGNPYVPVHFDASV
modifications: a single high-mannose oligosaccharide
notes: ribonuclease B (glycosylated pancreatic ribonuclease), bovine pancreas; The Fbs proteins recognise the N-glycan of this glycoprotein; also called RNase B; source: bought: Sigma Aldrich (from bovine pancreas)
